From patent US20260209347A1 (BIORAY PHARMACEUTICAL, published 2026)
Positions count from the first letter of the chain named. Names and notes keep the numbering of the source.

B1: hu-52VH-13/VL-11 (antibody, human IgG4 S228P, kappa, V domains shown)
VH: QVQLVQSGAEVKKPGASVKVSCKASGFNIQNTYLHWVRQAPGQGLEWMGRIDPANDNIKYVPKFQGRVTMTADTSTNTAYMELSSLRSEDTAVYYCTRHGLFYEGWFAYWGQGTLVTVSS
VL: DIQLTQSPSSLSASVGDRVTITCSVSSSISSSNLHWYQQKPGKAPKPLIYGTSNLASGVPSRFSGSGSGTDYTLTISSLQPEDAATYYCQQWSSYPYTFGQGTKLEIKR
notes: full-length humanized antibody; also called hu-52 humanized antibody
B2: hu-52VH-13/VL-31 (antibody, human IgG4 S228P, kappa, V domains shown)
VH: B1 VH
VL: EIVLTQSPATLSLSPGERATLSCSVSSSISSSNLHWYQQKPGQAPRPLIYGTSNLASGIPARFSGSGSGTDYTLTISSLEPEDAAVYYCQQWSSYPYTFGQGTKLEIKR
notes: as for B1
B3: hu-52VH-23/VL-21 (antibody, human IgG4 S228P, kappa, V domains shown)
VH: B1 VH with T76I, S85R, E89D
VL: B1 VL with S10T, D71E, E82D
notes: as for B1
B4: hu-52VH-33/VL-11 (antibody, human IgG4 S228P, kappa, V domains shown)
VH: B1 VH with A16S, M70I
VL: B1 VL
notes: full-length humanized IgG4 antibody (not the L235E/D265A/R409K IgG4 mutant); also called hu-52 humanized antibody
B5: hu-52VH-23/VL-11 (antibody, human IgG4 S228P, kappa, V domains shown)
VH: B1 VH with T76I, S85R, E89D
VL: B1 VL
notes: as for B1
B6: hu-52VH-13/VL-21 (antibody, human IgG4 S228P, kappa, V domains shown)
VH: B1 VH
VL: B1 VL with S10T, D71E, E82D
notes: as for B1
B7: cAb-52 (antibody, human IgG4 S228P, kappa, V domains shown)
VH: EVQLQQSVAELVRPGASVKLSCTASGFNIQNTYLHWVKQRPEQGLEWIGRIDPANDNIKYVPKFQGKATITADTSSNTAYLQLSSLTSEDTAIYYCTRHGLFYEGWFAYWGQGTLVTVST
VL: EIVLTQSPALMAASPGEKVTITCSVSSSISSSNLHWYQQKSGTSPKPWIYGTSNLASGVPVRFSGSGSGTSYSLTISSMEAEDAATYYCQQWSSYPYTFGSGTKLEIKR
notes: human-mouse chimeric antibody, human IgG4 constant region; also called antibody number 52; NKG2A chimeric antibody
B8: cAb-17 (antibody, human IgG4 S228P, kappa, V domains shown)
VH: EVQLQQSVAELVRPGASVKLSCTASGFNIKNTYIDWVKQRPEQGLEWIGNIDPANGNTKYAPKFQGKATITADTSSNTAYVQLSSLTSEDTAIYYCARWGGWDVRFAYWGQGTLVTVSA
VL: DIKMTQSPSSMYASLGERVTITCKASQDINTYLSWFQQKPGKSPKTLIYRANRLVDGVPSRFSGSGSGQNYSLTISSLEYEDMGIYYCLQYDEFPLTFGAGTKLELKR
notes: human-mouse chimeric antibody, human IgG4 constant region; also called antibody number 17; NKG2A chimeric antibody
B9: cAb-33 (antibody, human IgG4 S228P, kappa, V domains shown)
VH: B8 VH with I34M, N50R, V81L, W99E, G101N, V104D, R105W, A107V
VL: DVLMTQTPLSLPVSLGDQASISCRSSQSIVHSNGNTYLEWFLQKPGQSPKLLIYKVSNRFSGVPDRFSGSGSGTDFTLKISRVEAEDLGVYYCFQGSHVPPTFGGGTKLEIKR
notes: human-mouse chimeric antibody, human IgG4 constant region; also called antibody number 33; NKG2A chimeric antibody
B10: cAb-24 (antibody, human IgG4 S228P, kappa, V domains shown)
VH: EVQLQQSVAELVRPGASVKLSCTASGFNIQNTYMHWVKQRPEQGLEWIGRIDPANGNTKYAPKFQGKATITADTSSNTAYLQLSSLTSEDTAIYYCARYYDSRYGYWGQGTTLTVSS
VL: B8 VL with T31S, K45T, N70D, M83L, Y87F, L96W, A100G, L106I
notes: human-mouse chimeric antibody, human IgG4 constant region; also called antibody number 24; NKG2A chimeric antibody
B11: cAb-35 (antibody, human IgG4 S228P, kappa, V domains shown)
VH: B8 VH with I34M, N50R, Y60H, A72T, V81L
VL: B8 VL with T22N, K24Q, T31S, Y49H, N70D, Y91F
notes: human-mouse chimeric antibody, human IgG4 constant region; also called antibody number 35; NKG2A chimeric antibody
B12: cAb-9 (antibody, human IgG4 S228P, kappa, V domains shown)
VH: EVQLQQSVAELVRPGASVKLSCTASGFNIQNTYMHWVKERPEQGLEWIGRIDPANGDTEFAPKFQGKATLTTDTSSNTAYLQLSSLTSEDTAIYYCGRERYFYGSRGFAYWGQGTLVTVSA
VL: DILMTQSPPSMSVSLGDTVSITCHASQGISSNIGWLQQKPGKSFKGLIYHGTNLEDGVPSRFSGSGSGADYSLTISSLESEDFADYYCVQYAQFPWTFGGGTKLEIKR
notes: human-mouse chimeric antibody, human IgG4 constant region; also called antibody number 9; NKG2A chimeric antibody
B13: cAb-14 (antibody, human IgG4 S228P, kappa, V domains shown)
VH: EVQLQQSVAELVRPGASVKLSCTASGFNIKNTYIHWVKQRPEQGLEWIGRIDPANGNTKYAPKFQGKASIIVDTSSNTAYLQLSSLTSEDTAIYYCARYYASSPYYYNMDYWGQGTSVTVSS
VL: DIQMTQSPASLSVSVGETVTITCRASENIYSNLAWYQQKQGKSPQLLVYAATNLADGVPSRFSGSGSGTQYSLKINSLQSEDFGSYYCQHFWGTFTFGSGTKLEIKR
notes: human-mouse chimeric antibody, human IgG4 constant region; also called antibody number 14; NKG2A chimeric antibody
B14: cAb-43 (antibody, human IgG4 S228P, kappa, V domains shown)
VH: EVQLQQSVAELVRPGASVKLSCTASGFNIQNTYIHWVKQRPEQGLEWIGRIDPASGSTEYAPKFQGKATITADTSSNSGYLQLSSLTSEDTAIYYCARYGNFLYYYSMDYWGQGTSVTVSA
VL: DIVMTQAAPSVPVTPGESVSISCRSNKSLLHSNGNTYLYWFLQRPGQSPQLLIYRMSNLASGVPDRFSGSGSGTAFTLRISRVEAEDVGVYYCMQHLENPYTFGGGTKLEIKR
notes: human-mouse chimeric antibody, human IgG4 constant region; also called antibody number 43; NKG2A chimeric antibody
B15: hu-52VH-23/VL-31 (antibody, human IgG4 S228P, kappa, V domains shown)
VH: B1 VH with T76I, S85R, E89D
VL: B2 VL
notes: as for B1
B16: hu-52VH-33/VL-21 (antibody, human IgG4 S228P, kappa, V domains shown)
VH: B1 VH with A16S, M70I
VL: B1 VL with S10T, D71E, E82D
notes: as for B1
B17: hu-43VH-13/VL-11 (antibody, human IgG4 S228P, kappa, V domains shown)
VH: QVQLVQSGAEVKKPGASVKVSCKASGFNIQNTYIHWVRQAPGQGLEWIGRIDPASGSTEYAPKFQGRATITADTSTNTGYMELSSLRSEDTAVYYCARYGNFLYYYSMDYWGQGTLVTVSS
VL: B14 VL with A7S, A8P, P9L, V11L, S18P, V19A, R44K, A75D, R79K, G105Q
B18: hu-43VH-11/VL-31 (antibody, human IgG4 S228P, kappa, V domains shown)
VH: B17 VH with I48M, A68V, I70M
VL: DIVMTQTPLSLSVTPGQPASISCRSNKSLLHSNGNTYLYWFLQKPGQPPQLLIYRMSNLASGVPDRFSGSGSGTDFTLKISRVEAEDVGVYYCMQHLENPYTFGQGTKLEIRT
B19: hu-43VH-21/VL-11 (antibody, human IgG4 S228P, kappa, V domains shown)
VH: B17 VH with I48M, A68V, I70M, T76I, S85R, E89D
VL: B18 VL with T7S, S12P, Q17E, P48S, R112K, T113R
B20: hu-43VH-11/VL-21 (antibody, human IgG4 S228P, kappa, V domains shown)
VH: B17 VH with I48M, A68V, I70M
VL: B18 VL with T7S, S12P, P15L, L42Q, K44R, P48S, Q50R, R112K, T113R

biological target: T1, human NKG2A/CD94 on cells (CHOK1-hNKG2A/CD94) (human, UniProt P26715 1-233; Q13241 1-179); assay: cell-based or functional assay
T1 sequence (P26715 whole entry, chain 1 of 2): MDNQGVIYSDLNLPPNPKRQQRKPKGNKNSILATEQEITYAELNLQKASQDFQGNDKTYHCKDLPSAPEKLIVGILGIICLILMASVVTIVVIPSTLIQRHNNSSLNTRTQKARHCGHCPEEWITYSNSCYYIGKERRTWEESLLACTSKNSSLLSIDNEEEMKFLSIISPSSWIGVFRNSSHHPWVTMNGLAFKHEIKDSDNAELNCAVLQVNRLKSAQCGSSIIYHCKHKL
T1 sequence (Q13241 whole entry, chain 2 of 2): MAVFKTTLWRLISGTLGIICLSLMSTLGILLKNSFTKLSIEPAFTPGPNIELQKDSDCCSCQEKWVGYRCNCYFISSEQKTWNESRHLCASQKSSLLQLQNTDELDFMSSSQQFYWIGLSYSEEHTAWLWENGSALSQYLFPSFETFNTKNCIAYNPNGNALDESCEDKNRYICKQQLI

**Q.** Which “IC50 (nM), killing of LCL721.221 target cells by NK92 cells” value (“IC50 (nM), killing” below) does the source give for B1 here?
**A.** Its value is 0.19 nM.

**Q.** For B2, which “IC50 (nM), killing” value is on record?
**A.** Its value is 0.16 nM.

**Q.** Which “IC50 (nM), killing” value does the source give for B3 here?
**A.** Its value is 0.12 nM.

**Q.** How did the “IC50 (nM), killing” value turn out when B4 was run?
**A.** Its value is 0.09 nM.

**Q.** How did the “IC50 (nM), killing” value turn out when B5 was run?
**A.** Its value is 0.13 nM.

**Q.** Which “IC50 (nM), killing” value does the source give for B6 here?
**A.** The value was 0.14 nM.

**Q.** B7 was tested. Which “IC50 (nM), killing” value did it give?
**A.** Its value is 0.28 nM.

biological target: T1, human NKG2A/CD94 on cells …; assay: FACS on CHOK1-hNKG2A/CD94 cells
Experimental: (§1) Human NKG2A overexpressing cells (CHOK1-hNKG2A/CD94), cyno NKG2A overexpressing cells (CHOK1-cynoNKG2A/CD94), and human NKG2C overexpressing cells (CHOK1-hNKG2C/CD94) were digested with TrypLE (purchased from Gibco). Cells were collected by centrifugation, then resuspended to 2E6/mL with FACS buffer (PBS+2% FBS). The cells were added to a 96-well cell plate at 100 μL per well, and the supernatant was discarded after centrifugation. The antibody was gradiently diluted with FACS buffer (initial concentration of 200 nM, 5-fold dilution, including point 0, a total of 10 concentration points), added to the cells at 100 μL/well, mixed, and incubated at 4° C. for 1 hour. The incubated cells were centrifuged at 300 g for 5 min and washed twice with FACS buffer. Secondary antibody, anti-human IgG fluorescent secondary antibody 488 (purchased from Thermofisher A-11013), was added, incubated at 4° C. for one hour, then the cells were washed twice with FACS buffer, resuspended in PBS and analyzed by FACS instrument.

**Q.** Does B8 bind?
**A.** Result: binds

**Q.** Does B9 bind?
**A.** Result: binds

**Q.** Does B10 bind?
**A.** Result: binds

**Q.** Does B11 bind?
**A.** Result: binds

**Q.** Does B12 bind?
**A.** Result: binds

**Q.** Does B13 bind?
**A.** Result: binds

biological target: T2, human NKG2C/CD94 on cells (CHOK1-hNKG2C/CD94) (human, UniProt P26717 1-231; Q13241 1-179); assay: FACS on CHOK1-hNKG2C/CD94 cells
T2 construct: whole, on cells; also called human NKG2C overexpressing cells; human NKG2C overexpressing cell line
T2 sequence (P26717 whole entry, chain 1 of 2): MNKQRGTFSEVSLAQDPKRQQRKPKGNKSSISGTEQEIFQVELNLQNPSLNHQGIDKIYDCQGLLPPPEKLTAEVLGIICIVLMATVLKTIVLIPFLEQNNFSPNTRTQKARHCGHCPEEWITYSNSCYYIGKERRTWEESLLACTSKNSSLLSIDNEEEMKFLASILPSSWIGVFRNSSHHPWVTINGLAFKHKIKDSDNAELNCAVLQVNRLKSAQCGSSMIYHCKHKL
T2 sequence (Q13241 whole entry, chain 2 of 2): as the sequence (Q13241 whole entry, chain 2 of 2) above
Experimental: as §1

**Q.** Does B8 bind?
**A.** Result: no binding (tested: initial concentration of 200 nM)

**Q.** Does B9 bind?
**A.** Result: no binding (tested: initial concentration of 200 nM)

**Q.** Does B10 bind?
**A.** Result: no binding (tested: initial concentration of 200 nM)

**Q.** Does B11 bind?
**A.** Result: no binding (tested: initial concentration of 200 nM)

**Q.** Does B12 bind?
**A.** Result: no binding (tested: initial concentration of 200 nM)

**Q.** Does B14 bind?
**A.** Result: no binding (tested: initial concentration of 200 nM)

**Q.** Does B7 bind?
**A.** Result: no binding (tested: initial concentration of 200 nM)

**Q.** Does B13 bind?
**A.** Result: no binding (tested: initial concentration of 200 nM)

biological target: T1, human NKG2A/CD94 on cells …; assay: FACS on human NKG2A overexpressing cell line
Experimental: as §1
The binding activity of humanized antibodies to human NKG2A overexpressing cell line was detected by FACS (refer to Example 4 for FACS). The maximum MFIs of cAb-43 and its humanized mutant antibodies to human NKG2A overexpressing cell line were greater than that of the Z270 control antibody.

**Q.** How did the “Maximum MFI” value turn out when B1 was run?
**A.** The value was 18800 MFI.

**Q.** Which “Maximum MFI” value does the source give for B2 here?
**A.** Its value is 18800 MFI.

**Q.** For B3, which “Maximum MFI” value is on record?
**A.** The value was 18000 MFI.

**Q.** For B4, which “Maximum MFI” value is on record?
**A.** Its value is 18800 MFI.

**Q.** With B15 as the binder, how does the “Maximum MFI” value read?
**A.** The value was 18100 MFI.

**Q.** With B5 as the binder, how does the “Maximum MFI” value read?
**A.** Its value is 18700 MFI.

**Q.** With B6 as the binder, how does the “Maximum MFI” value read?
**A.** Its value is 18900 MFI.

**Q.** Which “Maximum MFI” value does the source give for B16 here?
**A.** The value was 18000 MFI.

**Q.** With B7 as the binder, how does the “Maximum MFI” value read?
**A.** Its value is 18800 MFI.

biological target: T1, human NKG2A/CD94 on cells …; assay: cell-based or functional assay; remark: another data set of the same source

**Q.** Which “IC50 (nM), killing” value does the source give for B17 here?
**A.** The value was 0.37 nM.

**Q.** B18 was tested. Which “IC50 (nM), killing” value did it give?
**A.** The value was 0.45 nM.

**Q.** For B19, which “IC50 (nM), killing” value is on record?
**A.** Its value is 0.52 nM.

**Q.** Which “IC50 (nM), killing” value does the source give for B20 here?
**A.** The value was 0.33 nM.

**Q.** For B14, which “IC50 (nM), killing” value is on record?
**A.** Its value is 0.28 nM.
